This note sets out measurements from doi:10.1101/2023.01.08.523168 (bioRxiv, 2023).

Like-named read-outs stand apart in the source and are kept apart here. No end group written: not given here. *: point of attachment. Oxazole(5-CO) = O=C(c1cnco1)*; Crotonyl(E) = C/C=C/C(=O)*; 2Furoyl = O=C(c1ccco1)*; Butyryl = CCCC(=O)*

Experiment [1] deals with T1, 6x His-tagged ENL YEATS domain (human, UniProt Q03111 1-138).
T1 sequence (looked up): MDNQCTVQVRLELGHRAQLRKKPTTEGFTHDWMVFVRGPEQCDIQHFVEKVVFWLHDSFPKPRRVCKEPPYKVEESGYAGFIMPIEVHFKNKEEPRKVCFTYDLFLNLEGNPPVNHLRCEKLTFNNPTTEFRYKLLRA
Description: AlphaScreen or HTRF. A general note: In Alpha technology, singlet oxygen from a donor bead excites a nearby acceptor bead.

Experiment [2] addresses T1, 6x His-tagged ENL YEATS domain. Nature of the experiment: BLI. A general note: Biolayer interferometry detects binding as a change in optical thickness at a sensor tip.
Experiment [3] concerns the target T2, AF9 YEATS domain (human, UniProt P42568 1-138).
T2 sequence (looked up): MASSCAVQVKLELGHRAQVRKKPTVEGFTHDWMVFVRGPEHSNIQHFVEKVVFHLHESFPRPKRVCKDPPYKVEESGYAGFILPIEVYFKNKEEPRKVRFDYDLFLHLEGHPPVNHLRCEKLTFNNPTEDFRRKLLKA
Nature of the experiment: BLI.

The target of experiment [4] is T2, AF9 YEATS domain. Nature of the experiment: AlphaScreen or HTRF.
Experiment [5] addresses T3, NanoLuc luciferase (NLuc)-ENL YEATS fusion protein (human, UniProt Q03111 1-148).
T3 sequence (looked up): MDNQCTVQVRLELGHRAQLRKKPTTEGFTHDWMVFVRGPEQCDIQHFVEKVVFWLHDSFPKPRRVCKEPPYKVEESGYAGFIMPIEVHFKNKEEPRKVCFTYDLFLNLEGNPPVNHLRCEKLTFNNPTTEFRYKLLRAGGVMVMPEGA
Nature of the experiment: FRET or BRET.

The target in experiment [6] is T3, NanoLuc luciferase (NLuc)-ENL YEATS …. Nature of the experiment: FRET or BRET. The source holds these as a separate data set. On the technique in general: BRET reads energy transfer from a luciferase to a nearby fluorophore.
Experiment [7] shares this target. Nature of the experiment: FRET or BRET. This is another data set of the same source.

For orientation: IC50 means the concentration that inhibits the measured activity by half. A low value points to greater potency. The Kd is the free concentration of one partner at which half of the binding sites on the other are occupied at equilibrium, for simple one-to-one binding. By koff is commonly meant the rate constant with which the complex falls apart. One may read the kon as a measure of how fast the partners come together. The low end stands for slower complex formation, the high end for faster complex formation. Consider YDVYCYK(Butyryl)-NH2 [ENL-S1], for which, in experiment [1], the half-maximal inhibitory concentration (IC50) turned out to be 63 nM. In experiment [2], the Kd came to 36.3 nM, the koff is 0.00226 s⁻¹ and the on-rate (kon) was determined as 62300 M⁻¹ s⁻¹. For the same molecule, the affinity in experiment [3], expressed as Kd, was 205 nM. Further, in experiment [4], the “fold lower potency (IC50) toward AF9 YEATS than toward ENL YEATS” value (from here on “fold lower potency”) stood at 4 fold.
WWIIEK(Butyryl)G-NH2 [ENL-S2] displayed a half-inhibitory concentration (IC50) in experiment [1] of 1220 nM. In experiment [2], this molecule gave a Kd of 881 nM, a koff of 0.00554 s⁻¹ and a kon of 6290 M⁻¹ s⁻¹.
Consider YDVYCYK(Oxazole(5-CO))-NH2 [ENL-S1o], for which, in experiment [1], 10 nM corresponded to half-maximal inhibition (IC50). Besides, the dissociation constant Kd in experiment [2] came out at 2 nM; in experiment [3], 55.1 nM. In experiment [4], the “fold lower potency” value turned out to be 23 fold.
The corresponding values for YDVYCYK(Crotonyl(E))-NH2 [ENL-S1c] are 20 nM, 16.2 nM, 147 nM and 18 fold.
With YDVYCYK(2Furoyl)-NH2 [ENL-S1f], the concentration for half-maximal inhibition (IC50) in experiment [1] worked out at 22 nM. Also, the figures for the Kd in experiment [2] and in experiment [3] were 10.3 nM and 144 nM, respectively. The “fold lower potency” value in experiment [4] was 7.7 fold.
For Ac-VYCYK(2Furoyl)-NH2 [tENL-S1f], in experiment [3], the “fold selectivity for ENL YEATS over AF9” value turned out to be 12 fold. Also, the half-inhibitory concentration (IC50) in experiment [5] was 4.1 ± 1.1 µM; in experiment [6], 4.2 ± 1.1 µM; in experiment [7] it was 6.4 ± 1.6 µM.
